Laboratory results: the DeepSol protein solubility set

experiment: soluble on expression in E. coli; label from the status in PepcDB or PDB records

Row | Sequence | soluble on expression in E. coli
1 | MLIVLSLGGSILAKNLDPDRFLKYANALRDISKKHTLLVVTGGGEAARDYIGAARAMGADEVTCDYIGIEITRLNARLLISALGHDAYPEIPSNYPEASKAMTSGKVVVMGGVTPGQTTDAVASILAEYLRADLLTIATSIDGVYSSDPNCDPCAVKYEKISPEKLINIVMAIEMKAGSKSPVDPVAAKIIERCKLDALVMDARNPDLLVEVICGEAAKKSPVSCGTWITAKKMAGDPLEHHHHHH | soluble
2 | MSKIETPVMTSLQTTAEKMMKDLNVPGAAVAVIKDGEVIISEGFGYRNIETKEAVTPNTRFAIGSSTKAFGTLSLSLLAQQKKFNWDTPIQSYIPNFTLSELLASSQVTGRDLASHRTGVSRHEALWYSSSLSRKDLVEKIKHLPLDAPFRTAFLYNNLMYATISYIVENITNQTWEQYTTEHILEPLNMRHTNFSVNDSQTTDDYALPYIENDGEIKAVPFRNIDTVGAAGCINSTIEDMANWVLLHLNEGKFGDHELISSELLQQMYTPHNSIPDQPVLSLPESPLNSYGLGWFISAYRGKKVIHHGGNIDGFSALVSFIPTENIGLVILTNAGGTLLPTYLANQIYDELLELESIDWHKRAVEDTKKMKEMMKEATESLPEQIKGTTPSHKLEDYTGTFEHPAYGTLQVYKRDDSLYVQFMEMDIQLGHHHYDIFSAKVDLFQMKMSLLFAYEMNVSGEFPSLQLHVPATLSTQPLTFKKIK | not soluble
3 | MPDSPTPGRRERKKAATRQAIADAALQLFLEHGFDRVSVRDVAERADVSTTTLFAHFPSKESLVFDREQEVDAALAAAVRERPDGQGVVEALRAHALESWVPIVTDPRRARFTALVSDTPALREYSERMWMRHADTLSTVIAEELDREPDDSACAALARFVLEIPALTTGRHDPRATVETVFDLLLHGWRSQAGPRPPQADGR | not soluble
4 | MRRSGPELWKTLTSVSKSGQKKGRRNTRQPVRPLNRFYRIGSSPMKIEFAGLNAPIRMRETENQNLMSIAEQTEDEIRDSMGGTKKILEERDTGKKKRNREKLHPMERGFSGTQLVGQKLGAPPPLDGVNFDDFETYCLEVKRTSNMTNVFGRVHTMSALVVTGNGRGLAGYAVGKAPIHRTTTAIINGMGMASRKLFHVELHEGRTIYQDFYAECRNTRVFAQRRPRGFGLTCHPRLIKICEAIGIKDIYVKVEGSTKNYLALTHAFVTGLLNQETHQQLAERKGLHVVEMSPSRHFLPQIVASPISTELKTEETLEALDRLNLDDFYGEGRYPLRKPKSLPFFSNLEGHLDARWRKHPFRNQESTMIRLIADNMVPRWTRDARAAWADQRNERMTTGVEPMPLGIGLSHVVPKKDD | not soluble
5 | METPMHDEEESDSLNTSHLSDVELDDLVTTKFVEEFKNLKIADDSLEVVRDVGSPLNQALSPIERRNSDEFLLEDHPSLVRPIKDIFQRDEAMLLKNRILDASDEILKTNFMWNMFERSKKWRNTSHSSEVSLLDSLFQMVDRRPVLLHISCSRLTENDISCMIRKSLLDVAAQPRQKTVFRVTIKTEMPLKQFLGQLAMLLSTSPTIKFECAPVTALMKNLDGSMRKFYTAEVENFAEAELGLLSMSHLSPMNASARFKFTMNEKPFVTVNVGYHSNIDQCRRQKTIVIEQTVDGTVPARRVTFGFPLVSRVEEYELDEGLPFIPLRNSTKVFDLSQHFGNVQALPKVLDLKNIVFK | not soluble
6 | MKINQMKKDQLFEGFYLIKSAEVRKTRAGKDFISLTFQDDTGEISGNLWDAQPYNVEEFTAGKVVFMKGRREVYNGTPQVNQITLRNVRPGEPNDPKDFKEKAPVSVTEVRDYLEQMLFKIENATWQRIVRALYRKYDKEFYTYPAAKTNHHAFESGLAYHTATMVRLADSIGDIYPDLNKSLLFAGIMLHDLAKVIELTGPDNTEYTVRGNLIGHISLINEEITKVISELQIDDTKEEVIVLRHVILSHHGQLEYGSPVRPRIMEAEIIHMIDNIDANMMMMTTALSRVSEGEMTNRIFAMDNRSFYKPNY | not soluble
7 | MGSDKIHHHHHHMIMEELAKKIEEEILNHVREPQIPDREVNLLDFGARGDGRTDCSESFKRAIEELSKQGGGRLIVPEGVFLTGPIHLKSNIELHVKGTIKFIPDPERYLPVVLTRFEGIELYNYSPLVYALDCENVAITGSGVLDGSADNEHWWPWKGKKDFGWKEGLPNQQEDVKKLKEMAERGTPVEERVFGKGHYLRPSFVQFYRCRNVLVEGVKIINSPMWCVHPVLSENVIIRNIEISSTGPNNDGIDPESCKYMLIEKCRFDTGDDSVVIKSGRDADGRRIGVPSEYILVRDNLVISQASHGGLVIGSEMSGGVRNVVARNNVYMNVERALRLKTNSRRGGYMENIFFIDNVAVNVSEEVIRINLRYDNEEGEYLPVVRSVFVKNLKATGGKYAVRIEGLENDYVKDILISDTIIEGAKISVLLEFGQLGMENVIMNGSRFEKLYIEGKALLK | not soluble
8 | SADPGPDPESESESVFPREVGLFADSYSEKSQFCFCGHVLTITQNFGSRLGVAARVWDAALSLCNYFESQNVDFRGKKVIELGAGTGIVGILAALQGGDVTITDLPLALEQIQGNVQANVPAGGQAQVRALSWGIDHHVFPANYDLVLGADIVYLEPTFPLLLGTLQHLCRPHGTIYLASKMRKEHGTESFFQHLLPQHFQLELAQRDEDENVNIYRARHREPRPA | not soluble
9 | MGSDKIHHHHHHMYYPYWQLGGTPWYQPPVQQQAPPYFQLPPLYTGPYSSPYQTSLVPYLTRPLRTPETPQDRTRTIMRDLMTAIDGEHRAIQCYQQMAQHAPTKKEQQQIEEIITDEQRHLRTFSALYQQITEKQHEPTTDQKISHNYEKALAFAVEEEQKTVDFYLEVADHAPNLQIREAFQRAAKDEQNHAVWFLYFLTKRLTSKL | not soluble
10 | MKQSIRHNKIIELVNQLGYVSTEELVAQLAVSSQTIRRDLNELAEKNLLRRHHGGAGMPSNNENSDYSERKKFFSAQKNIIAQQVAEMIPNGSSLFLDIGTTSEAVAYALLSHQHLRIVTNNLNAAHILMQKDDFQITIAGGDLRADGGIIGEATVNFISEFRLDFGILGISAIDQDGSMLDYDYHEVQVKRALMQSSRQVILVTDHSKFNRRAIVRLGNISEVNYLFTDLPLPLELQQYLAPTNVTVYICNNLEHHHHHH | soluble
11 | DHYNCVSSGGQCLYSACPIFTRIQGTCYRGRARCCR | soluble
12 | MAHHHHHHMQPVKTAVGIRQGLRRCTQLPNKSFRILHVSPRQLTVSTGGDDILKEQRRLQQHGTCTRNNIFRHGVVCACNLLQGYTISIKTNSLIHHSLNFTGNTKTQASKDTHLSNKLYQTFRIIHLHPPIRINVHQWCIGIQNECMAVILHIHRPMFI | not soluble
13 | MLAAFQQQQTRKFSPITNTSASCLNMQPNPPKISIAPSVISVIGVHMEKHKLKIKTGQNIVLSASILPIQATNKELIWSNMNSDIITIYPKGDTVTITGKSAGKAVVIVTTAEGKFRDLCVIHVQPYMTNPK | not soluble
14 | MGSDKIHHHHHHMDTIGRRLDMGKRIVLADPRGFCAGVDRAILTVRTILKSADTPRADGLPPVYVRRQIVHNKHVVEDLAAQGAVFVQELAEIPDAAAEAGIPIVFSAHGVSPAVKAEATARGMHVVDATCPLVSKVHREVLRFVKEGYEIIYIGHKGHDEAVGVVEESPEHVHLIEHASDVDSLDFQPDTKLVLLTQTTLSVDETAGTITALKARFPWLEMPPNSDICYATSNRQAAVKLVAEQADCVVIVGSANSSNSVRLMEVAQEGLSARYASKTAVGAAGRAHRVDDASELDPAWFEGVESVGISSGASVPDELVSGVVAALQELGYQDVSTIETIKENMHFVLPAELRK | not soluble
15 | MSLTTETRSLYSQLPAIDRLLRDSSFLSLRDTYGHTRVVELLRQMLDEAREVIRGSQTLPAWCENWAQEVDARLTKEAQSALRPVINLTGTVLHTNLGRALQAEAAVEAVAQAMRSPVTLEYDLDDAGRGHRDRALAQLLCRITGAEDACIVNNNAAAVLLMLAATASGKEVVVSRGELVEIGGAFRIPDVMRQAGCTLHEVGTTNRTHANDYRQAVNENTALLMKVHTSNYSIQGFTKAIDEAELVALGKELDVPVVTDLGSGSLVDLSQYGLPKEPMPQELIAAGVSLVSFSGDKLLGGPQAGIIVGKKEMIARLQSHPLKRALRADKMTLAALEATLRLYLHPEALSEKLPTLRLLTRSAEVIQIQAQRLQAPLAAHYGAEFAVQVMPCLSQIGSGSLPVDRLPSAALTFTPHDGRGSHLESLAARWRELPVPVIGRIYDGRLWLDLRCLEDEQRFLEMLLKEGGSHHHHHH | soluble
16 | MTDIPHDHPRYESLLAREKVAAGVKMGITSIQGLIAQGRGESFDYLIGERSTESALYAERAAVAALLLAENPVISVNGNVAALAPDKVVTLADITGARIEVNLFHRTDTRVHLIIEQLKASGAAEVLGKNPDASLELSHDRRLVSSKGIYTADVVLVPLEDGDRCEKLVEMGKTVITIDLNPLSRTSKTATISIVDNLTRALGNMAKFAQEMKKERKEELVKLITTYDNKRTLSEAISEIQEHLKTMAAETGLEHHHHHH | soluble
17 | SKKLLFQFDTDATPSVFDVVVGYDGGADHITGYGNVTPDNVGAYVDGTIYTRGGKEKQSTAIFVGGGDMAAGERVFEAVKKRFFGPFRVSCMLDSNGSNTTAAAGVALVVKAAGGSVKGKKAVVLAGTGPVGMRSAALLAGEGAEVVLCGRKLDKAQAAADSVNKRFKVNVTAAETADDASRAEAVKGAHFVFTAGAIGLELLPQAAWQNESSIEIVADYNAQPPLGIGGIDATDKGKEYGGKRAFGALGIGGLKLKLHRACIAKLFESSEGVFDAEEIYKLAKEMA | soluble
18 | MAGDPMMSITIEQIRGALAGVADPQTGLELNVCVKDRDIHLAADPAALTIELGYPAGGVADSVRALAGAALAAAGLGAVRVAVTWNIIAHAVQPGLKPLPQVRNIIAVASGKGGVGKSTTAVNLALALAAEGARAGLLDADIYGPSVPAMLGLAGRPESRDNKTMEPLVGHGLQANSIGLLIDADAPAIWRGPMVTQALEQLLRQTNWRDLDYLVVDMPPGTGDIALTLAQKVPVAGAVIVTTPQDIALLDARKGLRMFQKVHVPILGVVENMAVHICPQCGHAEHIFGAGGGRRVAEQYEVPWLGSLPLQRAIREQTDAGNPTVAAEPESEVAGIYRDIARRVAARIAGLPRDMAGKLPAVVVRPALEHHHHHH | not soluble
19 | MKPSVILYKALPDDLLQRLQEHFTVHQVANLSPQTVEQNAAIFAEAEGLLGSNENVNAALLEKMPKLRATSTISVGYDNFDVDALTARKILLMHTPTVLTETVADTLMALVLSTARRVVEVAERVKAGEWTASIGPDWYGTDVHHKTLGIVGMGRIGMALAQRAHFGFNMPILYNARRHHKEAEERFNARYCDLDTLLQESDFVCLILPLTDETHHLFGAEQFAKMKSSAIFINAGRGPVVDENALIAALQKGEIHAAGLDVFEQEPLSVDSPLLSMANVVAVPHIGSATHETRYGMAACAVDNLIDALQGKVEKNCVNPHVAD | soluble
20 | MSKNVGKLVKIWNESEVLVDRKSKFQARCCPLQNQKDIPSILQELTQNNKSVSKASHMHMYAWRTAEVSNNLHLQQEQKKKGNKANKSNNSHVNKSRNITVQPKNIEQGCADCGEAGAGQRLLTLLERANIFNVLVIVTRWYGGTPLGSSRFRHISTCAVETLKKGGFLP | soluble
